# Laboratory results from IntAct's records for PubMed 16510448.
# B1: DNA polymerase delta subunit 4 (Homo sapiens), Q9HCU8 (parent)
# chain: MGRKRLITDSYPVVKRREGPAGHSKGELAPELGEEPQPRDEEEAELELLRQFDLAWQYGPCTGITRLQRWCRAKQMGLEPPPEVWQVLKTHPGDPRFQCSLWHLYPL
# Variants of: B1
# Conditions: with pcna_human PCNA
row,Variant,effect of a mutation on the interaction
1,I7A;S10A;Y11A,disrupting interaction
